Results taken from US20050054835A1 (XOMA TECHNOLOGY, published 2005).

Biological target: T1, human CD5 cell differentiation marker (human, UniProt P06127 25-495)
T1 sequence: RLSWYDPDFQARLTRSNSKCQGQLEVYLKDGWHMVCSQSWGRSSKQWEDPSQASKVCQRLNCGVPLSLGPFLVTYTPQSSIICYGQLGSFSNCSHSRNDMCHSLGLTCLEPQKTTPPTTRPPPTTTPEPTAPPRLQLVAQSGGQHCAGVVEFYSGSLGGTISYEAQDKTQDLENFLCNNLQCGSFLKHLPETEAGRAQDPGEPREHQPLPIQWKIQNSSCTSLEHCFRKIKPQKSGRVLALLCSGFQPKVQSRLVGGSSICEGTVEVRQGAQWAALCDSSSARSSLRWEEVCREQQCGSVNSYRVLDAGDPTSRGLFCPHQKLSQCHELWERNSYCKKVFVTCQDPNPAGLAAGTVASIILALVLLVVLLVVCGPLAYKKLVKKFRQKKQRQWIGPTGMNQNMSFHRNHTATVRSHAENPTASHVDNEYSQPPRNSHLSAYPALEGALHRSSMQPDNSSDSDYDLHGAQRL
Assay: cell-based or functional assay

B1: he3Fab-rGelA50(C44) (other, not shown: a dimerising Fc or GST)
heavy: EIQLVQSGGGLVKPGGSVRISCAASGYTFTNYGMNWVRQAPGKGLEWMGWINTHTGEPTYADSFKGRFTFSLDDSKNTAYLQINSLRAEDTAVYFCTRRGYDWYFDVWGQGTTVTVSS
light: DIQMTQSPSSLSASVGDRVTITCRASQDINSYLSWFQQKPGKAPKTLIYRANRLESGVPSRFSGSGSGTDYTLTISSLQYEDFGIYYCQQYDESPWTFGGGTKLEIK
chain: GLDTVSFSTKGATYITYVNFLNELRVKLKPEGNSHGIPLLRKKCDDPGKAFVLVALSNDNGQLAEIAIDVTSVYVVGYQVRNRSYFFKDAPDAAYEGLFKNTIKTRLHFGGSYPSLEGEKAYRETTDLGIEPLRIGIKKLDENAIDNYKPTEIASSLLVVIQMVSEAARFTFIENQIRNNFQQRIRPANNTISLENKWGKLSFQIRTSGANGMFSEAVELERANGKKYYVTAVDQVKPKIALLKFVDKDPK
modifications: Cys 44 disulfide-linked through an M2IT linker to the Fab
- IC50, whole cell cytotoxicity (inhibition of protein synthesis), CEM cells: 173 pM T
- IC50, whole cell cytotoxicity (inhibition of protein synthesis), HSB2 cells: 165 pM T
